Substrate in data set [1]: OC1OC[C@@H](O[C@@H]2OC[C@@H](O[C@@H]3OC[C@@H](O)[C@H](O)[C@H]3O)[C@H](O)[C@H]2O)[C@H](O)[C@H]1O
Kind of data set: purified protein, by the assay type. The settings on record: other: 37° C., pH 8.0.

Substrate in data set [2]: OC[C@H]1O[C@@H](O[C@H]2[C@H](O)[C@@H](O)C(O)O[C@@H]2CO)[C@H](O)[C@@H](O)[C@@H]1O
Briefly: purified protein, by the assay type. The settings on record: other: 37° C., pH 8.0.

Substrate in data set [3]: OC[C@H]1O[C@@H](O[C@H]2[C@H](O)[C@@H](O)[C@H](O[C@H]3[C@H](O)[C@@H](O)C(O)O[C@@H]3CO)O[C@@H]2CO)[C@H](O)[C@@H](O)[C@@H]1O
Kind of data set: purified protein, by the assay type. The note with it: other: 37° C., pH 8.0.

The nature of data set [4]: Chromogenic H2O2 oxidase assay / kinetic analysis on xylose.
Protocol: (§1) A chromogenic assay was used to measure hydrogen peroxide production (15). Reactions contained 0.1 mM 4aminoantipyrine (4AA), 1 mM phenol, 0.5 U horseradish peroxidase, 40 mM Tris-HCl (pH 8.0), and different substrates were initiated by adding 0.2 μg of enzymes to the 250 μL reaction mixture. The production of H2O2 was coupled to the oxidation of 4aminoantipyrine by horseradish peroxidase and detected at 500 nm. Reactions were incubated at 37° C. for 15 min to measure the specific activity of GOOX on 10 mM of monosaccharide or 1 mM of oligosaccharide.
(§2) At least 12 substrate concentrations were included to obtain kinetic parameters for each substrate. Initial rates were obtained by measuring reaction products every 30 s for 15 min at 37° C. and pH 8.0, and kinetic parameters were calculated using the Michaelis-Menten equation (GraphPad Prism5 Software).
Data set [5] is described as follows: Chromogenic H2O2 oxidase assay / kinetic analysis on cellobiose.
Protocol: as §1, §2
The mark [6] stands for this setting: 1 mM cellobiose, 37° C., 15 min.

B1: Acremonium strictum gluco-oligosaccharide oxidase GOOX-VN (type strain CBS 346.70, V38 and N388), SEQ ID NO. 2 (Sarocladium strictum; A38V/S388N) (protein)
chain: NSINACLAAADVEFHEEDSEGWEMDGTAFNLRVDYDPVAIAIPRSTEDIAAAVQCGLDAGVQISAKGGGHSYGSYGFGGEDGHLMLELDRMYRVSVDDDNVATIQGGARLGYTALELLDQGNRALTHGTCPAVGIGGHVLGGGYGFATHTHGLTLDWLVGATVVLADASIVHVSKTENADLFWALRGGGGGFAIVSEFEFNTFEAPEIITTYQVTTTWNRKQHVAGLKALQDWAENTMPRELSMRLEINANALNWEGNYFGNAKDLKKVLQPIMKKAGGKSTISKLVETDWYGQINTYLYGADLNITYNYDVHEYFYANSLTAPRLSDEAISAFVDYKFDNSSVRPGRGWWIQWDFHGGKNSALASHSNDETAYAHRDQLWLWQFYDNIYDYENNTSPYPESGFEFMQGFVATIEDTLPEDRKGKYFNYADTTLDKEEAQKLYWRGNLEKLQAIKAKYDPEDVFGNVVSVEPIA
On to B1, for which the Michaelis constant (Km) in data set [1] is 100 ± 10 µM; in data set [2], 70 ± 10 µM; in data set [3], 90 ± 10 µM. The catalytic constant (kcat) in data set [1] is 8.31 ± 0.123 s⁻¹; in data set [2] it was 6.25 ± 0.178 s⁻¹; in data set [3], 6.02 ± 0.192 s⁻¹. In addition, the kcat/Km in data set [1] turned out to be 84300 ± 8530 M⁻¹ s⁻¹; in data set [2], 95500 ± 13900 M⁻¹ s⁻¹; in data set [3], 70600 ± 8150 M⁻¹ s⁻¹. Also, the “Specific Activity of Enzyme Variants” value turned out to be 0.4 µmol/min/mg in data set [4] (10 mM xylose, 37° C., 15 min) and 5.4 µmol/min/mg in data set [5] (setting [6]). In addition, the “Specific activity Defined substrate concentration” value in data set [4] (10 mM xylose, 37° C., 15 min) was found to be 0.42 µmol/mg/min; in data set [5] (setting [6]), 5.38 µmol/mg/min. For the same molecule, the oxidation of xylose entry in data set [4] (after 3 min using 10 mM sugar) is on record as “detected”. Also, the results for the “Specific activity From Vmax” value in data set [4] (substrate xylose) and in data set [5] (substrate cellobiose) were 5.20 µmol/mg/min and 6.18 µmol/mg/min, respectively.

For orientation: Km means the substrate concentration at which the rate is half of its maximum. In general, kcat refers to the number of substrate molecules converted per active site and unit of time at saturation. Usually kcat/Km stands for the turnover number divided by the Michaelis constant.

Source of the values: US20140057332A1, “GLUCO-OLIGOSACCHARIDE OXIDASES FROM ACREMONIUM STRICTUM AND USES THEREOF” (The Governing Council of the University of Toronto, priority 2011, published 2014).
